Test results reported in patent publication US20050261472A1, “Binding moieties for fibrin” (Dyax Corp., priority 1999, published 2005).
Bridge positions count the residues as written; N and C are the ends. Ends that are not written are not given here.

How the values were obtained:
dried fibrin [1] = biological target: T1, dried fibrin (UniProt P02671 36-629; P02675 45-491; P02679 27-437, limits assumed); assay: dried fibrin plate, bound vs free peptide
T1 construct: Polymerised fibrin made in 96-well plates from fibrinogen and thrombin, dried at 37 C and rehydrated; also called (rehydrated) dried fibrin; fibrin target
T1 sequence (looked up) 1: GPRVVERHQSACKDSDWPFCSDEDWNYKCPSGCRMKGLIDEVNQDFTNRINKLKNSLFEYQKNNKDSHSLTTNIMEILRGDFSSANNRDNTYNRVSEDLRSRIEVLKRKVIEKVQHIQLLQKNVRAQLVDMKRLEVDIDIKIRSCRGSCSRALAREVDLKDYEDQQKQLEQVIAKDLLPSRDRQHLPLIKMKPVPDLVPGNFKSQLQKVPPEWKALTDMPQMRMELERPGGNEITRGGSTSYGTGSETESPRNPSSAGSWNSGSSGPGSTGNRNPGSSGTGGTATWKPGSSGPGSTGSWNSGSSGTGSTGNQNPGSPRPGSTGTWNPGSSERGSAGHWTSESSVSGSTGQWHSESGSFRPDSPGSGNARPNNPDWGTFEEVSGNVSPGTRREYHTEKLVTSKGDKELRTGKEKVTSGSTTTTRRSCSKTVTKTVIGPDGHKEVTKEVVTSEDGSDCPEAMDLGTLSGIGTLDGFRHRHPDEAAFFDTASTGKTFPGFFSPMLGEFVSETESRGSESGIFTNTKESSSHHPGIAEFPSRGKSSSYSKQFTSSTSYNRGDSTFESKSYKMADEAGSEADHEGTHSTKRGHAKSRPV
T1 sequence (looked up) 2: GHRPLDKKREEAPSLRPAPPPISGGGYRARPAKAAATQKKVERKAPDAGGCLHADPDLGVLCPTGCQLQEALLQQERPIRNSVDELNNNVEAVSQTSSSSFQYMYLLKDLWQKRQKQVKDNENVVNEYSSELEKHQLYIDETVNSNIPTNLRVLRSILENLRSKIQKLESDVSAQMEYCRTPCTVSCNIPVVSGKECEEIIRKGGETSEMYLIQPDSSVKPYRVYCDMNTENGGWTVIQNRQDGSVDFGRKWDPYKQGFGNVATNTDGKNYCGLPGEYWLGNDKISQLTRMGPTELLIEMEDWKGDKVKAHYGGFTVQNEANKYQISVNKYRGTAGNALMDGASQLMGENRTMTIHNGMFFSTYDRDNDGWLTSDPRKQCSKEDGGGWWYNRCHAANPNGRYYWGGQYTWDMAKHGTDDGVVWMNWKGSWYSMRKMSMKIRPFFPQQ
T1 sequence (looked up) 3: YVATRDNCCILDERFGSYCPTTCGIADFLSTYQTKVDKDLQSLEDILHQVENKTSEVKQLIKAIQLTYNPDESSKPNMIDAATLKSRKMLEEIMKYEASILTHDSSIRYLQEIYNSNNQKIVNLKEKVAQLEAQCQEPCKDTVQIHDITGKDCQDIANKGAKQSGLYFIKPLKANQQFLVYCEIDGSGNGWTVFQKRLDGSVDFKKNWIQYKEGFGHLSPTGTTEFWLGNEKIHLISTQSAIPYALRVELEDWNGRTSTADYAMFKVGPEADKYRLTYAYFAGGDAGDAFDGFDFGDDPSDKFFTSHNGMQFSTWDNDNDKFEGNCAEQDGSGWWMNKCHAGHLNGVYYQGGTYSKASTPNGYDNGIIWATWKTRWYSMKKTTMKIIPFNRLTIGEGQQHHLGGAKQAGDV

fibrinogen = biological target: T2, fibrinogen (UniProt P02671 20-629; P02675 31-491; P02679 27-437, limits assumed); assay: equilibrium dialysis, fibrinogen 10 mg/ml, peptide by I.C.P.
T2 sequence (looked up) 1: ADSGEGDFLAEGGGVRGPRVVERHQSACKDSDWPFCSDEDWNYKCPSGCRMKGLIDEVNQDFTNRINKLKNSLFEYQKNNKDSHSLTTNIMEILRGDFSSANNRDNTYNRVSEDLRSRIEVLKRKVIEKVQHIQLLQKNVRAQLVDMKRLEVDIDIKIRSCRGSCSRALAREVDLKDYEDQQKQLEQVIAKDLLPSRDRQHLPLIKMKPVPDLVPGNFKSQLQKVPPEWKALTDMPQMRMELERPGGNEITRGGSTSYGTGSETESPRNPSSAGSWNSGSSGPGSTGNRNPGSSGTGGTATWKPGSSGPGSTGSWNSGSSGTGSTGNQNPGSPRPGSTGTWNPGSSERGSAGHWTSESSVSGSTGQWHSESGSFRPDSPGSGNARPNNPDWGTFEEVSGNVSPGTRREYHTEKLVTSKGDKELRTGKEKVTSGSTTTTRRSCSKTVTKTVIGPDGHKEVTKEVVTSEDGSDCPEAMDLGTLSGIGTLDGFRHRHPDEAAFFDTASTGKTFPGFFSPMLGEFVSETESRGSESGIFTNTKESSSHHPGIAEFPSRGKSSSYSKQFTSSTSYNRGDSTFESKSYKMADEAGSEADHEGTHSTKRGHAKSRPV
T2 sequence (looked up) 2: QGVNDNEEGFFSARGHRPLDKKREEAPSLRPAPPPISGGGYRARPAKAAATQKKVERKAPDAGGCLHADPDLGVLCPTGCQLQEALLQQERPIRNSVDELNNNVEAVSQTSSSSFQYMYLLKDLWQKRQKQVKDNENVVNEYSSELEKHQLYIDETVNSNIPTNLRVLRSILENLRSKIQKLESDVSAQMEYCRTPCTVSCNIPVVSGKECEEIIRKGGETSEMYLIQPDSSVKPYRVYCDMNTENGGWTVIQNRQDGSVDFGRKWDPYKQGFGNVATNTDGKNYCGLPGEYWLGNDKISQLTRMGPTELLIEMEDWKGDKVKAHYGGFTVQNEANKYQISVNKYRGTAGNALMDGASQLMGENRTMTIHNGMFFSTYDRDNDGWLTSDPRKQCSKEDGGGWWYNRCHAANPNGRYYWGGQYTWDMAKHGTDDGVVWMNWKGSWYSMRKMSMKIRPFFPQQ
T2 sequence (looked up) 3: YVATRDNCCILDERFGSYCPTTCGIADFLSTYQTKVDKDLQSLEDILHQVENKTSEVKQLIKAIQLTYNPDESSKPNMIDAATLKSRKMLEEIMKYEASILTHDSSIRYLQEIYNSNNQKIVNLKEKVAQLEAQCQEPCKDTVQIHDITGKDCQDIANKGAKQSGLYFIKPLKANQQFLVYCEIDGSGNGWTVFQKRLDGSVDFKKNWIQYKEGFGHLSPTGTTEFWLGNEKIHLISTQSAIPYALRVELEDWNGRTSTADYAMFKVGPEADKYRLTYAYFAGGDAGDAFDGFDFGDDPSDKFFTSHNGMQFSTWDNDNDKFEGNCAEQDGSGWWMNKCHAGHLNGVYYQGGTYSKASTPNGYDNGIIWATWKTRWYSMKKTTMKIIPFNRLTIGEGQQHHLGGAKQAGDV
Procedure: (§1) A solution of fibrinogen (10 mg/ml) was mixed with the MR labeled peptide of Example 11 designated Gd-DTPA-Pep1, at concentrations of 10, 50 and 100 μM. The fibrinogen/peptide solution was placed on one side of a dialysis membrane in an equilibrium dialysis apparatus. The solution was allowed to equilibrate with an equal volume of buffer on the opposite side of the membrane.

dried fibrin [2] = biological target: T1, dried fibrin; assay: ratio of Kd for fibrinogen (equilibrium dialysis) to Kd for fibrin
Procedure: as §1

[3] = biological target: T3, fibrin of an in vitro clot formed from human blood plasma (human, UniProt P02671 36-629; P02675 45-491; P02679 27-437); assay: human plasma clotted in the presence of peptide, free peptide by Gd I.C.P., bound vs free fit
T3 construct: Plasma of a human donor clotted with CaCl2 in the presence of the peptide; also called in vitro blood clot
T3 sequence (looked up) 1: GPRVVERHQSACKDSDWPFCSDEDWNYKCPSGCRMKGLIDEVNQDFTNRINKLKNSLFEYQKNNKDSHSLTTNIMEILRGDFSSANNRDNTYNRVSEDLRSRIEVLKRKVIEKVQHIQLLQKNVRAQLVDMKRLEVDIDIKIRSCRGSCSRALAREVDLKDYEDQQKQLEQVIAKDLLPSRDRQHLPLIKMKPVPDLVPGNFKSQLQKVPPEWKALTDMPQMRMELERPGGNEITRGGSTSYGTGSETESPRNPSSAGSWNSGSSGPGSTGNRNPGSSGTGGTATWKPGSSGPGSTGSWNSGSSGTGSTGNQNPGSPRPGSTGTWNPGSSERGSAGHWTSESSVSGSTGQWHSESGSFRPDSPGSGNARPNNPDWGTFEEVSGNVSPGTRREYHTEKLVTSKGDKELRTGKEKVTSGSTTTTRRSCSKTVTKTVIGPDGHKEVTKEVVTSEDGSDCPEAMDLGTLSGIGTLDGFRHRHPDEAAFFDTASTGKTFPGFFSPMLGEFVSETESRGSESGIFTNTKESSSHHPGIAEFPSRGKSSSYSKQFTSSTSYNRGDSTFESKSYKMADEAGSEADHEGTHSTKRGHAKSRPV
T3 sequence (looked up) 2: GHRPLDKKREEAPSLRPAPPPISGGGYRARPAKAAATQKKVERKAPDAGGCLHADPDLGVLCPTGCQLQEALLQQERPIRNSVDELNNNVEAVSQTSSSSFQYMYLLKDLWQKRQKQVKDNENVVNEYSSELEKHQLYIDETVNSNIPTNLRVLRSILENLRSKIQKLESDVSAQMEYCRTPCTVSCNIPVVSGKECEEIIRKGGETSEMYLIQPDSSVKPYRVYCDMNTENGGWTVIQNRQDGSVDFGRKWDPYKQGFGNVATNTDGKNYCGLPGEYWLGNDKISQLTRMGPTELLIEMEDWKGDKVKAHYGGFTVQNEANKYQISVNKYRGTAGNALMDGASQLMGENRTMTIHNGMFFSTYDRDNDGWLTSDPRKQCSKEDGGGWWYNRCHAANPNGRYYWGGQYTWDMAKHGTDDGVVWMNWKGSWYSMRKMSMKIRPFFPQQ
T3 sequence (looked up) 3: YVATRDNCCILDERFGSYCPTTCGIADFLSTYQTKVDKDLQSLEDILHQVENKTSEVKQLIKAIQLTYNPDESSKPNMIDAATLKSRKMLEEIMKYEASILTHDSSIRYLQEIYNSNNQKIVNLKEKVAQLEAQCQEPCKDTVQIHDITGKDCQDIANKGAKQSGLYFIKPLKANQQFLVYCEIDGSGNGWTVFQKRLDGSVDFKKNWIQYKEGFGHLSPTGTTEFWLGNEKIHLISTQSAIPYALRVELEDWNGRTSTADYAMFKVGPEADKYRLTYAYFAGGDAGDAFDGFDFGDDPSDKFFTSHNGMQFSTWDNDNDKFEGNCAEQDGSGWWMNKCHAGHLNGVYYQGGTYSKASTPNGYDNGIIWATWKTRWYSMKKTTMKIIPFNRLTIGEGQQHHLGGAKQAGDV
Procedure: Freshly drawn whole blood was obtained from a human donor and centrifuged at 4000×g for 15 minutes to remove the hematocrit. The blood plasma (supernatant) was removed and dispensed into ten 1.5 ml tubes, 500 μL/tube. The MR labeled peptide of Example 11, GdDTPA-Pep1, was added to each tube at increasing concentrations (2, 5, 8, 10, 15, 20, 30, 50, 75, 100 μM) along with PBS buffer (50 mM sodium phosphate, 150 mM NaCl, pH 7.4) to bring the total volume to 550 μL. The sample was equilibrated at 37° C. A small aliquot (50 μL) was removed for quantitating the total peptide added (measured by Gd I.C.P. analysis after dilution into 0.1 M HNO₃). Clotting was initiated by the addition of 5 μL 2 M CaCl₂, and the samples are incubated at 37° C. for 1 hour. The tubes were spun down briefly (5 sec) and the clot was removed with a pipet tip. The remaining supernatant (˜200 μL) was diluted in HNO₃ and the peptide concentration (equal to the concentration of unbound or free peptide) was measured by Gd I.C.P. analysis. The difference between the total and free peptide concentrations yields the concentration of bound peptide.

Kd (dried fibrin [1]): 7.4 µM
Kd (fibrinogen): 190 µM
specificity for fibrin over fibrinogen (fold) (dried fibrin [2]): ~70 fold
Kd [3]: ~20 µM
B1: Gd-DTPA-Pep1 (peptide)
peptide: LPCDYYGTCLD
modifications: disulfide 3-9 (inferred); not fully specified (N-terminus); also: Gd(III)-DTPA chelate, from DTPA-Asp(beta-COOH)-OtBu
